# According to the supplement of paper PMC9170038:
# Test system: MS2 coat protein
# Assay: apparent KD of MS2 coat protein; higher = weaker reporter binding
# Settings: Eterna round: R107
# Summary of the method: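 Designed RNA switches were transcribed on-chip from Illumina sequencing clusters and titrated with SNAP-549-labelled MS2 coat protein in twofold steps from 0.7 or 1.5 nM up to 3 µM. Each step lasted 0.8–1.5 h at first and 10–20 min by the end, in 100 mM Tris-HCl pH 7.5, 80 mM KCl and 4 mM MgCl2, without or with constant ligand. Apparent KD is the median, for each design, of fits to normalised cluster binding curves.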
# [1] = input ligand: theophylline 20 uM
# [2] = input ligand: theophylline 2 mM
# [3] = input ligand: tryptophan 2.4 mM
Sequence,apparent KD of MS2 coat protein (input ligand: arginine 13.2 mM) [nM],apparent KD of MS2 coat protein (input ligand: none) [nM],apparent KD of MS2 coat protein [1] [nM],apparent KD of MS2 coat protein [2] [nM],apparent KD of MS2 coat protein [3] [nM]
AGUUGCGUUGGAAGGAGCGGCAUGUGUGGGCCUCCUUACAAUACAUGAGGAUCACCCAUGUGCCAGGUAGGUCGCCAACACAGGU [Tiedmaqu],47.9,40.2,79.8,96,54.8
AUAAAUAAUAAAUAAGAUAAAAUGGGUGAACGAGGACCGGUACGGCCGCCACUCGGACAUGAGGAUCACCCAUGUCCAUGUGAAA [#22 Exclusion Tryptophan A],14,,19.8,20.2,
AUAACAUGAGGAUCACCCAUGUAAGCUGAAGGAGCGGACGAAAGUCCAGGUAGGUCGCAGCGCUCCUUCACCUCAUGAGAAGGAG [(M1)-(M2)-(Arg1)-(Arg2)-(A)'-(M)'-(A)''_Design2],23.4,23,31.4,25.3,22.4
AUAACAUGAGGAUCACCCAUGUAUUGGUUACGAGGACCGGUACGGCCGCCACUCGUAUUAUAGUGGUAUUUUGUUUAUAUGAUAA [JR_Nu_TrtptoA_Sub019],14.8,,20,18.4,
AUACAUGAGGAUCACCCAUGUAUAGUUGAAGGAGCGACCAGAGGGUCAGGUAGGUCGCAACACAUGAGGAUCACCCAUGUAUCGA [DOUBLE!!! :-D #7],30,49.9,52.9,47.5,34.6
AUACAUGAGGAUCACCCAUGUGAUGGCCGGCGAGGACCGGUACGGCCGCCACUCGUGAUCCGUCCCGAGAGCAAAGCUCUCGACA [Raatala],4.9,53.7,436,1080,50.3
AUACAUGAGGAUCACCCAUGUGAUGGCCGGCGAGGACCGGUACGGCCGCCACUCGUGAUCCGUCCUGAGAGCAAAGCCCUCAACA [Lequcele],80.1,,450,199,
AUACAUGAGGAUCACCCAUGUGAUGGCCGGCGAGGACCGGUACGGCCGCCACUCGUGAUCCGUCCUGAGAGCAAAGCCCUCAGCA [Onedti],17.3,,287,237,
AUACAUGAGGAUCACCCAUGUUAUAGUGAAGGAGCGACAUUUAGGUCAGGUAGGUCGCACUAUUGAAUUAUUAUCCUCUUUUCUU [JR_ExcArginiA_Sub021],23.1,21.3,31.2,23.7,24.7
AUAUAUACAUGAGGAUCACCCAUGUUAUUUCGAGGACCGGUACGGCCGCCACUCGAUAGAGUAGAAGUAAAUUUUGAUUCAUGUA [JR_SSTryptoA_Sub009],17.9,,27,23.5,
AUAUUUAACGGAAGGAGCGCGGAUAAUAAAGUGGGUAAACAUGAGGAUCACCCAUGUAAACCGCAGGUAGGUCGCCGAUAUAUAU [AstrosEXyARgB#7],26.4,63.6,54.8,51.2,41.4
AUCCUCUAGAAUGAUACCAGACCAAACAUGAGGAUCACCCAUGUAUCAGGCAAUUGUUACGUCCCUUGGCAGCAUGUAUGCCGAC [Theo B SS t3],17.7,,31.5,,20.2
AUCGCACCUGGUGAUACCAGCAAUUGCUCGUGACAUGAGGAUCACCCAUGUGGCCAGUGAUGCCCUUGGCAGCAUGGUCGGUGCA [Same State - Theophylline B (Freestyle 25)],98.2,317,335,64.5,288
AUCGCACCUGGUGAUACCAGCGUUUGCUCGCGACAUGAGGAUCACCCAUGUGGCCAGUGAUGCCCUUGGCAGCAUGGUCGGUGCA [Same State - Theophylline B (Freestyle 27)],75.5,,309,,314
AUCUUUGACGAUCUGGGAAAACCAGAUCGGCGAGGACCGGUACGGCCGCCACUCGUGUAUAAUAUACAUGAGGAUCACCCAUGUA [#19 Tryptophan A Same State],27.3,,61.3,53.9,
AUGCACGGGCUAAUCUGCGAUUGGCACGAUACCAGAGAUCAAGACCUCCCUUGGCAGCGUGUCACAUGAGGAUCACCCAUGUGGA [theeternabot_exclusion_MS2_Theo_A_40],43.4,,127,,141
AUGCAUAGCGGAAGGAGCGCAAUAGAAUGACAUGAGGAUCACCCAUGUAUGUGAUGUGGGUUGCAGGUAGGUCGCCGAGUGGUAU [Exclusion - Arginine B (Freestyle 1)],70.7,60.5,98.8,62.6,55
AUGCCUAGUGGAAGGAGCGAGGGUCCUCUCAACAUGAGGAUCACCCAUGUUCUUUUGCACCCUCAGGUAGGUCGCCAUUGGGACA [Veanaris],30.8,59.8,92.4,65.8,76
AUGGCGUUGGUGAGGCGGUUUAAUGGCGAUACCAGCGUGGAAACACGCCCUUGGCAGCGCCAAAACAUGAGGAUCACCCAUGUUA [Budejovice],13.2,13.4,28,132,16.4

Sequence,apparent KD of MS2 coat protein (input ligand: arginine 13.2 mM) [nM],apparent KD of MS2 coat protein (input ligand: none) [nM],apparent KD of MS2 coat protein [1] [nM],apparent KD of MS2 coat protein [2] [nM],apparent KD of MS2 coat protein [3] [nM]
AUGUAGAACCGAAGGAGCGCGAUAACAUGAGGAUCACCCAUGUAGCUUUGGUGGCCUCGAUCGCAGGUAGGUCGCGGAAGUAGUA [Exclusion - Arginine B / A],40.8,102,213,231,155
AUGUAGCCGUCGACUGUACCUUAUGCCGAUACCAGCUACCCGUGAAGCCCUUGGCAGCGGGAAACAUGAGGAUCACCCAUGUCAG [theeternabot_exclusion_MS2_Theo_A_13],19.6,,29.6,,24.7
AUGUCGUUGAAUACAGCGGCAUGGUGUGAUACCAGAAUGAUCAAAUUCCCUUGGCAGCAUCACAUGAGGAUCACCCAUGUUAAGG [SSTheo A #17],27.5,,50,,46.4
AUGUCGUUGAAUAUAGCGGCUUGGUGUGAUACCAGAAUGAUCUAAUUCCCUUGGCAGCAUUACAUGAGGAUCACCCAUGUUUAGG [SSTheo A #19],24.4,,29.6,,28.8
AUUAUAGUUUAUAACGAAGUUGAUACAGAAGGAGCGUGAAUAAUCACAGGUAGGUCGCUGAUAAUACAUGAGGAUCACCCAUGUU [JR_Nu_SSArginiA_Sub018],20.7,20.4,31.9,18.9,19.4
AUUCCAUAGGUGCAGUUGUUAAAUGGCGAUACCAGCGUGGAAACACGCCCUUGGCAGCGCCAAAACAUGAGGAUCACCCAUGUUA [Kladno],48.3,,111,,94.8
AUUUACAUGGUCAUAUAUAUAUCGUCAGAUACCAGACGAGAUAUUGUCCCUUGGCAGCUGUUACAUGAGGAUCACCCAUGUAAUU [JR_Nu_ExcTheophyA_Sub021],41,,56.4,,64.7
CAACUGCUUGAGCUUACUUAUUGGACUUCCCGAGGACCGGUACGGCCGCCACUCGCAGGGACACAUGAGGAUCACCCAUGUAAAG [theeternabot_exclusion_MS2_Trp_A_42],17.3,,21.1,19.6,
CAAGAAUGACGUACAGAUAACAAUAACGAUACCAGUACAUCAUUAUACCCUUGGCAGCGUUUCACAUGAGGAUCACCCAUGUACA [theeternabot_exclusion_MS2_Theo_A_14],15.4,,20.1,,17.6
CAAUAUAUAUGAAGGAGCGUCGAAAAUGGGUAAACAUGAGGAUCACCCAUGUAAAGGGAACGACAGGUAGGUCGCAUAUGUAUUG [AstromonsSSArgB#9],171,165,195,261,190
CAAUCUACCACCGGCCUACUGUACACUCGCCGAGGACCGGUACGGCCGCCACUCGACGUUCGACAUGAGGAUCACCCAUGUGGGU [theeternabot_exclusion_MS2_Trp_A_14],80.1,,200,289,
CACGAAAGAUCGGCCGCCACUAAUCUAUGUGUACUAGCACAUGAGGAUCACCCAUGUUCUUGCGUUAGGACCGGGAUUGAGCGUG [#03 Exclusion Tryptophan B],23.4,,27.6,24,
CAUAUAUAUAGAAGGAGCGUCGAAAAUGGGUAAACAUGAGGAUCACCCAUGUAAAGGGAACGACAGGUAGGUCGCUAUAUAUAUG [AstromonsSSArgB#3],99.1,161,187,208,175
CAUCAUGGGCUUGGACAAAUUGUGCUUGAUACCAGAAAUCACCGGUUCCCUUGGCAGCAACCCACAUGAGGAUCACCCAUGUGGA [theeternabot_exclusion_MS2_Theo_A_4],18.6,,20.1,,23
CCAUAUGUAACUGAUACCAGUGUACUGACAUGAGGAUCACCCAUGUUGGGUUUUGUUGUACACCCUUGGCAGCAGAAUCAUAUGG [AstrosExyTheB#17],48.3,,73.6,,53.9
CCCAAGCCAGCUGAUACCAGUGACGUGGUCAGAAUGUGCGACAUGAGGAUCACCCAUGUACACCCUUGGCAGCAGUAGAACGGUU [theeternabot_exclusion_MS2_Theo_B_47],13.6,,18.9,,14.9
CCGUAGCUAGGAAGGAGCGCAUACUUCACAUGAGGAUCACCCAUGUCGAGACGUGAGUCAGUGCAGGUAGGUCGCCUAGCUAUGG [Same State - Arginine B (Freestyle 28)],23.5,15.5,26.4,30.5,15.7
CCUAUGCAGUCGGCCGCCACUGAACAUGAGGAUCACCCAUGUAAUUAAAAUUAAGGUCCUAAAAUCAGGACCGGGACUGUAUAGG [Ex Tryptophan B 6],37.6,,43.3,56.6,
